The source of these data is patent US20100202967A1 (BRACCO IMAGING, published 2010).

Bridge positions count the residues as written; N and C are the ends. Square brackets hold non-standard residues; d marks the D form. Ends that are not written are not given here. Phe(3,4-F2) = N[C@@H](Cc1ccc(F)c(F)c1)C(=O)O; Thf2ca = tetrahydrofuran-2-carboxylic acid; Phe(4-F) = N[C@@H](Cc1ccc(F)cc1)C(=O)O; Hyp = O=C(O)[C@@H]1C[C@@H](O)CN1; Cha = N[C@@H](CC1CCCCC1)C(=O)O; CF5 = 5-carboxyfluorescein

The Kd is the constant that tells how readily two partners part at equilibrium. Read a high Kd as lower affinity.

The labels stand for the following.
T1: fibrin
T1 chain 1: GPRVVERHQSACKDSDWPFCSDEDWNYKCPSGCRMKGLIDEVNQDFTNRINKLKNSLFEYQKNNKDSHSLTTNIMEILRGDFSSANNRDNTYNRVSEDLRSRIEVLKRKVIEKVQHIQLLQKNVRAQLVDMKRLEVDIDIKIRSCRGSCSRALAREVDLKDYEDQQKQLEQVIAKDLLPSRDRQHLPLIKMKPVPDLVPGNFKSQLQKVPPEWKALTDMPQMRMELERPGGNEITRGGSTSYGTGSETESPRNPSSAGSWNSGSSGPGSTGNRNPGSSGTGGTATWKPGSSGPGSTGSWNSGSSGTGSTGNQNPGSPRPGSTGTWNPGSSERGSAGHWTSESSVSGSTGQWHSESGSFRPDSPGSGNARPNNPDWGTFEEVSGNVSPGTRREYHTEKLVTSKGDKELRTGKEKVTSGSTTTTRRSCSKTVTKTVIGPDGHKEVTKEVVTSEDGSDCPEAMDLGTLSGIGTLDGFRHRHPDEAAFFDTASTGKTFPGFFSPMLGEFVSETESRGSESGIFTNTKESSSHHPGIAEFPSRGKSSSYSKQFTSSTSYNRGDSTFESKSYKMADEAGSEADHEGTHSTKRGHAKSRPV
T1 chain 2: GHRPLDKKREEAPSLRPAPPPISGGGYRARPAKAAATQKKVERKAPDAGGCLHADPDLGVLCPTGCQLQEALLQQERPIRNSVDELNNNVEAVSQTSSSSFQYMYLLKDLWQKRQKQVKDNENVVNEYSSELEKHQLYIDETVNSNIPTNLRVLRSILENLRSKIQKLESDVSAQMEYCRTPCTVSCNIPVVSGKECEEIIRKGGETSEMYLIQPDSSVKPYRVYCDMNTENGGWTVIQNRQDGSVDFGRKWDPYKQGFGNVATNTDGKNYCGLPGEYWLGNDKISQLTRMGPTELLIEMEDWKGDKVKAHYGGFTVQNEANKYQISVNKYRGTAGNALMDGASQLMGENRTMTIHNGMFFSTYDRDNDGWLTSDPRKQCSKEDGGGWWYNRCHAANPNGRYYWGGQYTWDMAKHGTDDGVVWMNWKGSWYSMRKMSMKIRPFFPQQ
T1 chain 3: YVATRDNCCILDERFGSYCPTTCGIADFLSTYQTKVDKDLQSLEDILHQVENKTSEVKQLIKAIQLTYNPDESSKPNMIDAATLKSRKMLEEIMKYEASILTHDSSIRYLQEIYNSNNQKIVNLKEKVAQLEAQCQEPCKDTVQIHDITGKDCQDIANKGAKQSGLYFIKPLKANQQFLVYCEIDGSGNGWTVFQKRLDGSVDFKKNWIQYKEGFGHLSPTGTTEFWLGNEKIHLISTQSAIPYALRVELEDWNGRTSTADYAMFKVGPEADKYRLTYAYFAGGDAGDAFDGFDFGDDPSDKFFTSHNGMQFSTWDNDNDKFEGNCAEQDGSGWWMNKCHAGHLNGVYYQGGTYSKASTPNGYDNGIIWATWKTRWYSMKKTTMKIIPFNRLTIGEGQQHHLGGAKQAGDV

B1: Ac-RRGGWQPC*-Hypt4-WESWTFC*WDPGGGK-NH2 (peptide)
peptide: Ac-RRGGWQPC[Hyp]WESWTFCWDPGGGK-NH2
modifications: disulfide 8-16
SMILES: CC(=O)N[C@@H](CCCNC(=N)N)C(=O)N[C@@H](CCCNC(=N)N)C(=O)NCC(=O)NCC(=O)N[C@@H](Cc1c[nH]c2ccccc12)C(=O)N[C@@H](CCC(N)=O)C(=O)N1CCC[C@H]1C(=O)N[C@H]1CSSC[C@@H](C(=O)N[C@@H](Cc2c[nH]c3ccccc23)C(=O)N[C@@H](CC(=O)O)C(=O)N2CCC[C@H]2C(=O)NCC(=O)NCC(=O)NCC(=O)N[C@@H](CCCCN)C(N)=O)NC(=O)[C@H](Cc2ccccc2)NC(=O)[C@H]([C@@H](C)O)NC(=O)[C@H](Cc2c[nH]c3ccccc23)NC(=O)[C@H](CO)NC(=O)[C@H](CCC(=O)O)NC(=O)[C@H](Cc2c[nH]c3ccccc23)NC(=O)[C@@H]2C[C@@H](O)CN2C1=O
B2: Ac-RWQPC*PWESWTFC*WDPGGGK(CF5)-NH2 (peptide)
peptide: Ac-RWQPCPWESWTFCWDPGGGK(CF5)-NH2
modifications: disulfide 5-13
B3: Ac-WQPC*PWESWT-F34fe-C*WDPGGGK(CF5)-NH2 (peptide)
peptide: Ac-WQPCPWESWT[Phe(3,4-F2)]CWDPGGGK(CF5)-NH2
modifications: disulfide 4-12
B4: Thf2ca-WQPC*PWESWTFC*WDPGGGK(CF5)-NH2 (peptide)
peptide: Thf2ca-WQPCPWESWTFCWDPGGGK(CF5)-NH2
modifications: disulfide 4-12
B5: Ac-RGWQPC*PAESWT-Cha-C*WDPGGGK(CF5)-NH2 (peptide)
peptide: Ac-RGWQPCPAESWT[Cha]CWDPGGGK(CF5)-NH2
modifications: disulfide 6-14
B6: Ac-RWQPC*PAESWTFC*WDPGGGK(CF5)-NH2 (peptide)
peptide: RWQPCPAESWTFCWDPGGGK(CF5)-NH2
modifications: disulfide 5-13; not fully specified (N-terminus); printed as RWQPC*PAESWTFC*WDPGGGK(CF5)-NH2
B7: RGWQPC*PAESWT-Cha-C*WDPGGGK(CF5)-NH2 (peptide)
peptide: H-RGWQPCPAESWT[Cha]CWDPGGGK(CF5)-NH2
modifications: disulfide 6-14
B8: Ac-WQPC*PWESWT-Ffe4-C*WDPGGGK(CF5)-NH2 (peptide)
peptide: Ac-WQPCPWESWT[Phe(4-F)]CWDPGGGK(CF5)-NH2
modifications: disulfide 4-12
B9: Ac-WQPC*PWESWT-Cha-C*WDPGGGK(CF5)-NH2 (peptide)
peptide: Ac-WQPCPWESWT[Cha]CWDPGGGK(CF5)-NH2
modifications: disulfide 4-12
B10: RWQPC*PAESWTFC*WDPGGGK(CF5)-NH2 (peptide)
peptide: H-RWQPCPAESWTFCWDPGGGK(CF5)-NH2
modifications: disulfide 5-13
B11: GWQPC*PAESWTFC*WDPGGGK(CF5)-NH2 (peptide)
peptide: H-GWQPCPAESWTFCWDPGGGK(CF5)-NH2
modifications: disulfide 5-13
B12: RWQPC*PWESWTFC*WDPGGGK(CF5)-NH2 (peptide)
peptide: H-RWQPCPWESWTFCWDPGGGK(CF5)-NH2
modifications: disulfide 5-13
B13: Ac-GWQPC*PAESWTFC*WDPGGGK(CF5)-NH2 (peptide)
peptide: Ac-GWQPCPAESWTFCWDPGGGK(CF5)-NH2
modifications: disulfide 5-13
B14: Ac-WQPC*PWESWTFC*WDPGGGK(CF5)-NH2 (peptide)
peptide: Ac-WQPCPWESWTFCWDPGGGK(CF5)-NH2
modifications: disulfide 4-12
B15: Ac-WQPC*PWESWTFC*WDPGGGK-NH2 (peptide)
peptide: WQPCPWESWTFCWDPGGGK
modifications: N-terminal acetyl; disulfide Cys4-Cys12 (C*); C-terminal amide
B16: Ac-WQPC*PWESWT-Ffe4-C*WDPGGGK-NH2 (peptide)
peptide: Ac-WQPCPWESWT[Phe(4-F)]CWDPGGGK-NH2
modifications: disulfide 4-12
B17: GWQPC*PWESWTFC*WDPGGGK-NH2 (peptide)
peptide: H-GWQPCPWESWTFCWDPGGGK-NH2
modifications: disulfide 5-13
B18: Ac-WQPC*PWESWT-Cha-C*WDPGGGK-NH2 (peptide)
peptide: Ac-WQPCPWESWT[Cha]CWDPGGGK-NH2
modifications: disulfide 4-12
B19: Ac-GWQPC*PWESWTFC*WDPGGGK-NH2 (peptide)
peptide: Ac-GWQPCPWESWTFCWDPGGGK-NH2
modifications: disulfide 5-13
B20: Thf2ca-WQPC*PWESWTFC*WDPGGGK-NH2 (peptide)
peptide: Thf2ca-WQPCPWESWTFCWDPGGGK-NH2
modifications: disulfide 4-12
B21: Ac-WQPC*PWESWT-F34fe-C*WDPGGGK-NH2 (peptide)
peptide: Ac-WQPCPWESWT[Phe(3,4-F2)]CWDPGGGK-NH2
modifications: disulfide 4-12

The target of one experiment is T1, fibrin. In words: competition fluorescence polarization assay (n = 2). Background: Polarisation of emitted light reports the rotation of a fluorescent probe.
Take B1: the “Rel IC50” value is 0.75 ratio to Ac-Seq000-GGGK-NH2.

For another experiment, the target named is fibrin. The experiment in a line: fluorescence polarization, direct binding (n = 2).
B2 came in with a Kd of 110 nM.
The same measure, in the same setting: the figure for B3 is 700 nM; for B4 it is 1210 nM; for B5 it is 100 nM.
Still for that read-out and setting: the figure for B6 is 210 nM; for B7 it is 50 nM.
The molecule B8 returned a Kd of 1020 nM.
The same measure, in the same setting: as for B9, the figure is 200 nM; as for B10, 60 nM.
Still for that read-out and setting: the figure for B11 is 240 nM; for B12 it is 110 nM; for B13 it is 240 nM.
On the same count and under the same terms, the figure for B14 is 390 nM.

In another experiment the target is fibrin. In words: competition fluorescence polarization assay; reference of Table 6.
As for B15, the Rel IC50 (ratio (reference peptide itself)) came out at 1.

A further experiment addresses fibrin. In words: competition fluorescence polarization assay (n = 2).
With B16, the Rel IC50 (ratio to Ac-Seq000-GGGK-NH2) was found to be 0.601.
In the case of B17, the Rel IC50 (ratio to Ac-Seq000-GGGK-NH2) came to 0.622.
Still for that read-out and setting: the figure for B18 is 0.494; for B19 it is 1.04.
The same measure, in the same setting: the figure for B20 is 0.616.
Regarding B21, the Rel IC50 (ratio to Ac-Seq000-GGGK-NH2) was determined as 0.428.
